Assay [1] has as its target T1, DDB1 in DF15R cell extracts (UniProt Q16531 2-1140).
T1 construct: Co-immunoprecipitated with FLAG-tagged CRBN proteins from cell extracts
Description: immunoprecipitation and Western blot from DF15R cell extracts (FIG. 24C). A general note: A western blot detects proteins with antibodies after separation by electrophoresis.

For the next assay, the target named is T2, human GSPT1 G575N (human, UniProt P15170-3 139-637, limits assumed).
T2 construct: also called G575N mutation in GSPT1
T2 sequence (P15170 whole entry G437N): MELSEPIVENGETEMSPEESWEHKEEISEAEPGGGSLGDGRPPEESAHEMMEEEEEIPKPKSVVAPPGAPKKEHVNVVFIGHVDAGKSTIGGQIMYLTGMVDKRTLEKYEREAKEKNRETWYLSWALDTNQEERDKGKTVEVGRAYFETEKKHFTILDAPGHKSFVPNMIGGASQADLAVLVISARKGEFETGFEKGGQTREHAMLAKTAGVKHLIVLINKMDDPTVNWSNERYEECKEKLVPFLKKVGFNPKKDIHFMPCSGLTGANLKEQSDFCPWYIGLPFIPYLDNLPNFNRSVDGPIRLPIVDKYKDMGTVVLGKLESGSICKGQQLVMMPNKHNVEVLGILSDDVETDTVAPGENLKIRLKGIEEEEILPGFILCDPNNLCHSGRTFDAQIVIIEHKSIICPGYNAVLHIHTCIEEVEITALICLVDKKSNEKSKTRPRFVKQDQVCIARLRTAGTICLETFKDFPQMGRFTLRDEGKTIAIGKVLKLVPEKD
Description: Compound C-induced in vitro binding of GSPT1 to CRBN (FIG. 31C).

The target in the next assay is T3, full-length human GSPT1 (human, UniProt P15170 1-499).
T3 construct: mature; limits unknown; also called hGSPT1
T3 sequence (P15170 other isoform, or with tags, fused parts or gaps limits assumed): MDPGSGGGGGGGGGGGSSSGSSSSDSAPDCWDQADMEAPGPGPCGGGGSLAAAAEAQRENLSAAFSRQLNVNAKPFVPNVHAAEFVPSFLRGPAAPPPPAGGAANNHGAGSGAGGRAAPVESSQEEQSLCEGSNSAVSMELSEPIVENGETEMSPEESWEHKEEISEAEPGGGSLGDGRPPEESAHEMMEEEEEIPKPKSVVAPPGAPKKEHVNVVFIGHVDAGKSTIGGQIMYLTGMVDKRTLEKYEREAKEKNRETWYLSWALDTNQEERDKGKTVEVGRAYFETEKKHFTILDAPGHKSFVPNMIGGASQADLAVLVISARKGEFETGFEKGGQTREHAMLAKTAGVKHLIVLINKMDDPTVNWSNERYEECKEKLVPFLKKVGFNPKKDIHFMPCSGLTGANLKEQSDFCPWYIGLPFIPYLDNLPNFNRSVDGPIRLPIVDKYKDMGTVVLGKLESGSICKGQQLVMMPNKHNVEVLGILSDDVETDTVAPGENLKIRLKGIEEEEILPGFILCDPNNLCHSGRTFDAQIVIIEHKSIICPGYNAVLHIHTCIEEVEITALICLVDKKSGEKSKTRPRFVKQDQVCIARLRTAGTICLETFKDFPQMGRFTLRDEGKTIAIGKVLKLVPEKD
Description: CRBN immunoprecipitation in the presence of vehicle or Compound C (FIG. 34A).

Residue numbers refer to the chain shown, from its start. Names may count otherwise.

T1 sequence (Q16531 2-1140 limits assumed): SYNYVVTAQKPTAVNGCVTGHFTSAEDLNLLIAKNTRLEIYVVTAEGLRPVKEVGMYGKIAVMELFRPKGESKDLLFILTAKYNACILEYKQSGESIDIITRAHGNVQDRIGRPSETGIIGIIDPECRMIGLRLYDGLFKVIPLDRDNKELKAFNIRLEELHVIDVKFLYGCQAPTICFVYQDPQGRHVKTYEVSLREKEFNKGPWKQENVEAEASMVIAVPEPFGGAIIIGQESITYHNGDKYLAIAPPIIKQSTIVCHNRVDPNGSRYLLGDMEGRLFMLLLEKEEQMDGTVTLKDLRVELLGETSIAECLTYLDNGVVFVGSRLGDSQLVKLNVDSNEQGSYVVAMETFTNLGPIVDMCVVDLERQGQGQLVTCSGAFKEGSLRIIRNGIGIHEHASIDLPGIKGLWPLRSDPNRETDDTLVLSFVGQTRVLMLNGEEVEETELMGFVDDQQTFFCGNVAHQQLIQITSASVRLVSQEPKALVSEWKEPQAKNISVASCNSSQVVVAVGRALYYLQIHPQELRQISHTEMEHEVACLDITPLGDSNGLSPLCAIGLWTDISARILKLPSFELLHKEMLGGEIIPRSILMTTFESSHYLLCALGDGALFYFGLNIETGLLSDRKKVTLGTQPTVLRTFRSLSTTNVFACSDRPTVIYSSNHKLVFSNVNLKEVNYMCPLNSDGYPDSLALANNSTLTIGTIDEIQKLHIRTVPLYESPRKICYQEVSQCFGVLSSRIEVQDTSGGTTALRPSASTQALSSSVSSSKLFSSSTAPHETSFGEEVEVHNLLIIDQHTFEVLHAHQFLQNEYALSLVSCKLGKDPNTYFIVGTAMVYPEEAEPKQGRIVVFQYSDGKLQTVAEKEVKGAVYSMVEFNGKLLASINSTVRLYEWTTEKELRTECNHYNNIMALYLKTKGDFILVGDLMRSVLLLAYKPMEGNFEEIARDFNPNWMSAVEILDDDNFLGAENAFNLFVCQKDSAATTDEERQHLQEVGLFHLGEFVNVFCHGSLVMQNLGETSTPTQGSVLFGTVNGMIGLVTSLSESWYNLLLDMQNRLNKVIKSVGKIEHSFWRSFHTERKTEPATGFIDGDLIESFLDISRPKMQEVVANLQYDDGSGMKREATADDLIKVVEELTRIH

B1: full length CRBN W386A (CRBN^W386A), FLAG-tagged, re-expressed in DF15R cells (other, human, UniProt Q96SW2 1-442, looked up)
chain: MAGEGDQQDAAHNMGNHLPLLPAESEEEDEMEVEDQDSKEAKKPNIINFDTSLPTSHTYLGADMEEFHGRTLHDDDSCQVIPVLPQVMMILIPGQTLPLQLFHPQEVSMVRNLIQKDRTFAVLAYSNVQEREAQFGTTAEIYAYREEQDFGIEIVKVKAIGRQRFKVLELRTQSDGIQQAKVQILPECVLPSTMSAVQLESLNKCQIFPSKPVSREDQCSYKWWQKYQKRKFHCANLTSWPRWLYSLYDAETLMDRIKKQLREWDENLKDDSLPSNPIDFSYRVAACLPIDDVLRIQLLKIGSAIQRLRCELDIMNKCTSLCCKQCQETEITTKNEIFSLSLCGPMAAYVNPHGYVHETLTVYKACNLNLIGRPSTEHSWFPGYAATVAQCKICASHIGWKFTATKKDMSPQKFWGLTRSALLPTIPDTEDEISPDKVILCL
notes: mature; not shown: FLAG tag
B1: the binding result in assay [1] was “binds”.

B2: human WT CRBN (other, UniProt Q96SW2 1-442, looked up)
chain: B1 chain with A386W
notes: also called cereblon; hCRBN
Consider B2, for which the binding result with human GSPT1 G575N was “no binding”.

B3: full length CRBN W400A (CRBN^W400A), FLAG-tagged, re-expressed in DF15R cells (other, human, UniProt Q96SW2 1-442, looked up)
chain: B1 chain with A386W, W400A
notes: mature; not shown: FLAG tag
For the molecule B3, in assay [1], the binding result is on record as “binds”.

B4: human CRBN E377A (other, UniProt Q96SW2 1-442, looked up)
chain: B1 chain with E377A, A386W
As to B4, in the assay with full-length human GSPT1, the binding result is “no binding”.

B5: human CRBN H357A (other, UniProt Q96SW2 1-442, looked up)
chain: B1 chain with H357A, A386W
With B5, the binding result with full-length human GSPT1 is recorded as “no binding”.

B6: human CRBN E377V (other, UniProt Q96SW2 1-442, looked up)
chain: B1 chain with E377V, A386W
In the case of B6, the binding result with full-length human GSPT1 is recorded as “no binding”.

Values taken from patent US10830762 (dated 2020).
